The Immune Epitope Database (IEDB)

Key:
HLA-A*01:01 = assay: IEDB peptide-MHC binding, purified MHC/competitive/fluorescence; filed as Kd, often an IC50 or EC50 that approximates it; ≥ and ≤ were set here for values at or beyond the usual limits of such assays
HLA-A*02:01 = assay: as above; settings: source organism: Shigella flexneri 5 str. 8401
HLA-A*02:03 = assay: as above; settings: source organism: Shigella flexneri 5 str. 8401
HLA-A*02:19 = assay: as above; settings: source organism: Shigella flexneri 5 str. 8401
HLA-A*03:01 = assay: as above; settings: source organism: Shigella flexneri 5 str. 8401
HLA-A*11:01 = assay: as above
HLA-A*26:01 = assay: as above; settings: source organism: Shigella flexneri 5 str. 8401
HLA-A*29:02 [1] = assay: as above; settings: source organism: Shigella flexneri 5 str. 8401
HLA-A*30:01 = assay: as above; settings: source organism: Shigella flexneri 5 str. 8401
HLA-A*30:02 = assay: as above
HLA-A*66:01 = assay: as above; settings: source organism: Shigella flexneri 5 str. 8401
HLA-A*68:02 [2] = assay: as above; settings: source organism: Shigella flexneri 5 str. 8401
HLA-B*07:02 = assay: as above
HLA-B*08:01 = assay: as above
HLA-B*14:02 [3] = assay: as above; settings: source organism: Shigella flexneri 5 str. 8401
HLA-B*15:01 [4] = assay: as above; settings: source organism: Shigella flexneri 5 str. 8401
HLA-B*15:17 = assay: as above; settings: source organism: Shigella flexneri 5 str. 8401
HLA-B*18:01 [5] = assay: as above; settings: source organism: Shigella flexneri 5 str. 8401
HLA-B*27:03 [6] = assay: as above; settings: source organism: Shigella flexneri 5 str. 8401
HLA-B*27:05 = assay: as above; settings: source organism: Shigella flexneri 5 str. 8401
HLA-B*40:01 = assay: as above
HLA-B*44:02 = assay: as above
HLA-B*46:01 [7] = assay: as above; settings: source organism: Shigella flexneri 5 str. 8401
HLA-B*51:01 [8] = assay: as above; settings: source organism: Shigella flexneri 5 str. 8401
HLA-B*53:01 = assay: as above
HLA-B*57:01 [9] = assay: as above; settings: source organism: Shigella flexneri 5 str. 8401
HLA-B*58:01 = assay: as above
HLA-A*24:03 = assay: IEDB peptide-MHC binding, purified MHC/direct/fluorescence; filed as Kd, often an IC50 or EC50 that approximates it; ≥ and ≤ were set here for values at or beyond the usual limits of such assays; settings: source organism: Burkholderia mallei ATCC 23344
HLA-A*29:02 [10] = assay: as above; settings: source organism: Burkholderia mallei ATCC 23344
HLA-A*68:02 [11] = assay: as above; settings: source organism: Burkholderia mallei ATCC 23344
HLA-B*14:02 [12] = assay: as above; settings: source organism: Burkholderia mallei ATCC 23344
HLA-B*15:01 [13] = assay: as above; settings: source organism: Burkholderia mallei ATCC 23344
HLA-B*18:01 [14] = assay: as above; settings: source organism: Burkholderia mallei ATCC 23344
HLA-B*27:03 [15] = assay: as above; settings: source organism: Burkholderia mallei ATCC 23344
HLA-B*39:01 = assay: as above; settings: source organism: Burkholderia mallei ATCC 23344
HLA-B*46:01 [16] = assay: as above; settings: source organism: Burkholderia mallei ATCC 23344
HLA-B*51:01 [17] = assay: as above; settings: source organism: Burkholderia mallei ATCC 23344
HLA-B*57:01 [18] = assay: as above; settings: source organism: Burkholderia mallei ATCC 23344
HLA-B*15:42 = assay: IEDB peptide-MHC binding, purified MHC/competitive/fluorescence; filed as Kd, often an IC50 or EC50 that approximates it; ≥ and ≤ were set here for values at or beyond the usual limits of such assays; settings: source organism: Burkholderia mallei SAVP1
HLA-B*45:06 = assay: as above; settings: source organism: Burkholderia mallei SAVP1
HLA-B*83:01 = assay: as above; settings: source organism: Burkholderia mallei SAVP1
[19] = source organism: Shigella flexneri 5 str. 8401
[20] = source organism: Burkholderia mallei SAVP1

Measured: Kd

FGALFMWLL
0.138 µM: HLA-A*29:02 [1]
≥ 5 µM: HLA-A*01:01; [19] | HLA-A*11:01; [19] | HLA-A*30:01 | HLA-A*30:02; [19] | HLA-A*66:01 | HLA-B*07:02; [19] | HLA-B*08:01; [19] | HLA-B*14:02 [3] | HLA-B*27:05 | HLA-B*40:01; [19] | HLA-B*44:02; [19] | HLA-B*53:01; [19] | HLA-B*58:01; [19]
≥ 20 µM: HLA-A*02:01 | HLA-A*02:03 | HLA-A*02:19 | HLA-A*03:01 | HLA-A*26:01 | HLA-B*15:01 [4] | HLA-B*15:17 | HLA-B*18:01 [5] | HLA-B*27:03 [6] | HLA-B*46:01 [7] | HLA-B*51:01 [8] | HLA-B*57:01 [9]
0.741 µM: HLA-A*68:02 [2]

MVFGRFSFA
1.5 µM: HLA-A*11:01; [20]
0.192 µM: HLA-A*29:02 [10]
≤ 0.001 µM: HLA-A*68:02 [11]
≥ 5 µM: HLA-A*01:01; [20] | HLA-B*07:02; [20] | HLA-B*08:01; [20] | HLA-B*15:42 | HLA-B*40:01; [20] | HLA-B*44:02; [20] | HLA-B*45:06 | HLA-B*53:01; [20] | HLA-B*58:01; [20] | HLA-B*83:01
1.18 µM: HLA-B*14:02 [12]
≥ 20 µM: HLA-A*24:03 | HLA-B*15:01 [13] | HLA-B*18:01 [14] | HLA-B*27:03 [15] | HLA-B*39:01 | HLA-B*46:01 [16] | HLA-B*51:01 [17] | HLA-B*57:01 [18] | HLA-A*30:02; [20]
